The results in this text go back to patent US8716246B2, “Azuvirin peptides” (The Regents of the University of California, priority 2011, dated 2014).

Series [1] addresses rhEphA2 (Homo sapiens, UniProt P29317). Nature of the series: SPR binding to immobilized rhEphA2 (Biacore 3000). Further details: purchased R&D Systems, Inc., Minneapolis, Minn. Here is the method:
Binding to selected ephrin receptors was measured by surface plasmon resonance on a Biacore3000 instrument. Commercially available ephrin receptors: EphA2, EphB2 and EphB4 (R&D Systems) were immobilized on a CM-5 chip by amine coupling and tested peptides were passed over a chip surface as analytes.
Binding studies. Binding studies were performed by surface plasmon resonance (SPR) on a BIAcore 3000 system (BiaCore AB, Piscataway, N.J.). BIAcore CM5 sensor chips were utilized in all experiments. Binding studies were performed in HBS-EP running buffer (pH=7.4) containing 10 mM HEPES, 150 mM NaCl, 3 mM EDTA, and 0.005% polysorbate 20. Commercially available ephrin receptors: EphA2, EphB2 and EphB4 (R&D Systems, Inc., Minneapolis, Minn.) were immobilized on a CM5 sensor chip using the amine coupling method. The chip was activated by mixing 400 mM N-ethyl-N-(3-dimethylaminopropyl)-carbodiimide hydrochloride and 100 mM N-hydroxysuccinimide. Residual reactive groups on the chip surface were blocked using 1.0 M ethanolamine/HCl (pH=8.5). The flow cell-1 chip, which served as a control, lacked immobilized protein but was treated with N-ethyl-N-(3-dimethylaminopropyl)-carbodiimide hydrochloride, N hydroxysuccinimide, and ethanolamine/HCl. Binding signals were corrected for nonspecific binding by subtracting the flow cell-1 signal (blank surface). To regenerate chip surfaces, bound ligands were removed with 10 mM HCl. Data were analyzed with BIAevaluation 4.1 software (Biacore, Piscataway, N.J.).
On the technique in general: In SPR one partner is held on a chip, and binding of the other changes the refractive index at the surface.

Series [2] concerns human red blood cells (hRBCs). Here is the method:
Human red blood cells (hRBCs). Fresh blood (˜3 ml) was collected from an anonymous donor into a tube that contained heparin as an anticoagulant. An aliquot of blood (200 μl) was removed and washed 4 with 800 μl of cold PBS at room temperature, each centrifugation was for 3 minutes at ˜500×g. A total of 780 μl of supernatant was removed each time. With four washes, this procedure should remove >99.8% of the total serum protein and any heparin anticoagulant. The supernatant was completely removed in the last wash, leaving only the packed red blood cells, which were subsequently diluted 1:20 in PBS to make 5% v/v stock of hRBCs.
Hemolysis assay. The experiments were carried out as previously described. Briefly, 2.5% v/v normal human RBCs were exposed to various concentrations of AzV36-NicL at 37° C. for 30 min. All experiment were carried out in triplicate using 96-well microplate (Costar 3596) and OD at 700 nm was monitored every 30 s. employing the SpectraMAX 250 microplate reader (Molecular Devices, Sunnyvale, Calif.). Controls: PBS, human RBCs, human RBCs+2.5% Triton (100% lysis). The hemolytic effect was calculated as following: […]

A short description of series [3]: MultiTox-Fluor Multiplex Cytotoxicity Assay, RAW 264.7 cells. The series is classed as cell-based. The settings on record: mouse, 24 h co-culture, read-out: LD50, RAW cells. Here is the method: Experiments were carried out using MultiTox-Fluor Multiplex Cytotoxicity Assay (Promega Corp., Madison, Wis.) as previously described. This assay simultaneously measures the number of live and dead cells in culture wells based on the activity of two proteases, one a marker of cell viability, and the other a marker of cytotoxicity, which yield products with different excitation and emission spectra. Briefly, for cytotoxicity experiments murine LCC (or RAW 264.7) cells were plated in a 96-well plate at a density of 1×10^4 cells/well in a total volume of 50 μl of culture media and treated with various concentrations of tested peptides (50 μl of 0-400 μM peptides in culture media). Cells' viability was assessed 24 h later by MultiTox-Fluor Multiplex Cytotoxicity Assay (incubation time 1 h). For cell viability experiments, LCC cells were plated in a 96-well plate at a density of 5×10^3 cells/well in a total volume of 50 μl of culture media and treated with various concentrations of tested peptide (50 μl of 0-200 μM peptide in culture media) for 1 hour prior to 0, 2, 4 Gy irradiation. Cell viability was assessed 72 h later by MultiTox-Fluor Multiplex Cytotoxicity Assay (incubation time 1 h). All experiments were carried out in triplicates.

A short description of series [4]: Observation of toxicity during the in vivo mouse studies. Further details: species or system C57BL/6 mice. The settings on record: 25 mg/kg IP. Here is the method: Animal experiments. C57BL/6 gnotobiotic mice (8 weeks old) were obtained from the UCLA AALAC accredited Department of Radiation Oncology Facility and intravenously injected with 5×10^5 cells of syngeneic LLC. Various treatments were initiated 4 days later, after cancer engraftment. In general, each animal received intraperitoneally a total of 500 μg (˜25 mg/kg) of peptide (or equimolar amount of nicotinamide) in 4 daily doses 60 min before local thoracic irradiation (0 or 4 Gy, total dose: 4.4=16 Gy) that was delivered using an Atomic Energy of Canada cesium gamma irradiator with a dose rate of approximately 0.6 Gy/min with the rest of the body shielded. Prior to irradiation animals were anesthetized by intraperitoneal injection of ketamine/xylazine mixture. Animals were sacrificed on the 14th day of the experiment and lung tumor nodules were counted. All experiments were approved by the UCLA Animal Care and Use Committee and conformed to local and national guidelines.
C57BL/6 mice (8 weeks old) were injected subcutaneously with 1.0×10^6 cells of syngeneic LLC (leg). After 10 days, palpable tumors of approximately 5 mm diameter appeared and treatment was initiated. […] Tumor size was assessed every two days and animals sacrificed as necessary according to the UCLA Animal Care guidelines.

Square brackets hold non-standard residues; d marks the D form. Peptide text beside a SMILES is read from it. * marks the point of attachment. Oic = O=C(O)[C@@H]1C[C@@H]2CCCC[C@@H]2N1; Cha = N[C@@H](CC1CCCCC1)C(=O)O; Tle = CC(C)(C)[C@H](N)C(=O)O; Nicotinoyl = O=C(c1cccnc1)*; Acm = CC(=O)NC*

`CC(=O)NCSC[C@H](NC(=O)[C@H](CC1CCCCC1)NC(=O)[C@H](CC1CCCCC1)NC(=O)[C@@H](CCCCNC(=O)c1cccnc1)NC(=O)[C@@H](N)Cc1ccc(O)cc1)C(=O)N[C@H](C(=O)N[C@@H](CC1CCCCC1)C(=O)N1[C@H](C(=O)N[C@H](CCCNC(=N)N)C(=O)N[C@@H](Cc2c[nH]cn2)C(=O)N[C@@H](CCCNC(=N)N)C(=O)N[C@H](C(=O)N[C@@H](CC2CCCCC2)C(=O)N[C@@H](CSCNC(C)=O)C(=O)N[C@H](CCCCN)C(N)=O)[C@@H](C)O)C[C@@H]2CCCC[C@@H]21)C(C)(C)C` [AzV36-NicL, YkNic-Cha-Cha-Cam-Tle-Cha-Oic-rHRT-Cha-Cam-k-CONH] (H-Y[dK](Nicotinoyl)[Cha][Cha]C(Acm)[Tle][Cha][Oic][dR]HRT[Cha]C(Acm)[dK]-NH2): in series [1], binding was put at a Kd of 0.0139 ± 0.0029 µM. Further, the “Hemolysis ± SEM” value in series [2] (20 μM peptide (highest tested), 2.5% hRBCs, 37° C., 30 min) worked out at 9.3±3.0%. The “hemolytic effect (in words)” value in series [2] (≦10 μM peptide) is recorded as “non-hemolytic”. Besides, in series [3], the CC50 at 24 h came to 10.3 ± 0.78 µM. Further, the “toxic effect of the injections in vivo” value in series [4] is on record as “no obvious toxic effect”.
